The values that follow come from US20120231013A1.

For the assay, the target named is recombinant TIMP-3 (human or mouse; Table 2 does not say which). As to the kind of experiment: AlphaScreen, biotinylated TIMP-3, Assay 1. (In general: Alpha assays give light when donor and acceptor beads are brought close together.)
recombinant TIMP-3 (human or mouse; Table 2 does not say which), sequence (P35625 24-211): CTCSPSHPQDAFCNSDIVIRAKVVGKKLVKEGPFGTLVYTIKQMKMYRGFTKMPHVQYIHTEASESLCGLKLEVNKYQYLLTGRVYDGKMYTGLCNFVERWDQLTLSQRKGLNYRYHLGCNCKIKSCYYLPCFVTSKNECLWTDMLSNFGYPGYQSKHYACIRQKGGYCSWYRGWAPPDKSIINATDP

For the molecule CNASSQFLCSSGRCVAEALLCNGQDDCGDSSDERGCHINE [LRP-1 peptide LA20], the total signal (cps) was 2200 cps.
